Tested on: MS2 coat protein
Assay: apparent KD of MS2 coat protein; designed switch direction (-1 OFF switch, 1 ON switch): -1; higher = weaker reporter binding
In short: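 Designed RNA switches with common flanks were transcribed on Illumina chips by stalled E. coli RNA polymerase and titrated with SNAP-549-labelled MS2 coat protein, from 0.7 or 1.5 nM doubling to 3 µM, in Tris-HCl pH 7.5 buffer with KCl, MgCl2, BSA, DTT, tRNA and Tween-20. Steps lasted 0.8–1.5 h (lowest) to 10–20 min (highest). Titrations ran without input, with 200 uM small-molecule ligand, or with an oligonucleotide input. Normalised cluster fluorescence was curve-fitted, and apparent KD is the per-design median over clusters.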

[1] = input ligand: microRNA oligo, concentration not stated
[2] = Eterna round: R95, input ligand: FMN 200 uM
[3] = Eterna round: R95, input ligand: microRNA oligo, concentration not stated
[4] = Eterna round: R95, input ligand: none

Sequence	apparent KD of MS2 coat protein (input ligand: FMN 200 uM) [nM]	apparent KD of MS2 coat protein [1] [nM]	apparent KD of MS2 coat protein (input ligand: none) [nM]	apparent KD of MS2 coat protein [2] [nM]	apparent KD of MS2 coat protein [3] [nM]	apparent KD of MS2 coat protein [4] [nM]
GGAAGAGAGAUAGGAUAUCAGAGGAAGAUGGUGAGAGAGACAUGAGGAUCACCCAUGUGAAGGAAUGAGAAGGGUCAGAAGGAA [EXNG2 V2 h] (Eterna round: R96, puzzle: Exclusion NG 2)	130	133	101	–	–	–
AGGGAAGAGUGAGGAUAUGGAAAUUUGGUGAGAACAUGAGGAUCACCCAUGUGGAAACAAGAAAAUUAGAAGGUAUAGGGAGGG [AK ExNG2-1.2] (Eterna round: R96, puzzle: Exclusion NG 2)	48	45.3	61.3	–	–	–
AAACACACAGGAUAUGAGAGGCGGUACAUGAGGAUCACCCAUGUCCUCGGAAAUCAGCGUUCAGAAGGGUGCGGUG [Eternabot (Original) Solution 36] (Eterna round: R97, puzzle: Exclusion 5)	457	–	171	–	–	–
UUUUCGUAAGGAUAUGGUUAGAUCUACGAAAGUAGAUCUAACCAGAAGGUACAUGAGGAUCACCCAUGUUGAUA [Mod of Brourd 21 - Jieux - Exclusion 4] (Eterna round: R97, puzzle: Exclusion 4)	32	–	22.5	–	–	–
CUCCGCGGAGGAUAUGCAGCCUUCGACAUGAGGAUCACCCAUGUACAAGAUCCCUUGUCGGCAGAAGGCCGGGAGA [Usena] (Eterna round: R97, puzzle: Exclusion 5)	114	–	448	–	–	–
AGGGACUAAGGAUAUACUUAGGAGAUAAACGACUGGUGAACACUUGAGGAUCACCCAAGUAGAAGGUAGUCAAA [Enonsoor] (Eterna round: R97, puzzle: Exclusion 2)	135	–	30.4	–	–	–
UGGCUACAUGAGGAUCACCCAUGUCAGGAUAUGCCGUUAAAUUAACAUCAACAUACGGGUAGAAGGGACAGCGU [1st #6] (Eterna round: R97, puzzle: Exclusion 1)	43.5	–	41.7	–	–	–
GUUAACGUAGGAUAUUAGUACAUACACAUGAGGAUCACCCAUGUUUAGUGGGUCUAAGAAUAAGAAGGGCGAAGAA [EX5 #25] (Eterna round: R97, puzzle: Exclusion 5)	117	–	130	–	–	–
GAUCCUCAGACGGACGUCACGAAACAUGAGGAUCACCCAUGUGAGGAUAUCUCCAAAAGGUCGGCAGAGAAGGCACCAUAACAA [Eternabot solution 19] (Eterna round: R96, puzzle: Exclusion NG 3)	261	131	139	–	–	–
UUGCGCUGAGGAUAUAUAACCGAUGACAUGAGGAUCACCCAUGUGGAUACAAGGGACUGAAUAGAAGGUAGCCAGA [Eternabot (L1) Solution 69] (Eterna round: R97, puzzle: Exclusion 5)	42.4	–	79.9	–	–	–
CUUGAGUGACAAGCUUUUUGCUCGUCUGUUAUUGAUGCUACAUGAGGAUCACCCAUGUUUAAGAUGUGUGAGGAUGG [JR_SV3TOV2_Sub054] (puzzle: Sensor v3, turn-off variant 2)	–	–	–	36.7	48.9	35.6
GGUCCACGAGGAUAUCGAUUAUAGUACAUGAGGAUCACCCAUGUUGUCCAGGUUUCGUUUCGAGAAGGCGUGGGUU [LRO-Ex5-01] (puzzle: Exclusion 5)	–	–	–	–	88.1	–
CAUGAAGACAAGGAUAUCCGAAUGACGUAAGAAGGAGAAGGUGUCACAUGAGGAUCACCCAUGUGGGAUCUCUG [EX6 B.15] (Eterna round: R97, puzzle: Exclusion 6)	138	–	23.9	–	–	–
AAGAAACAUGAGGAUCACCCAUGUGAGGAUAUGUAAAAUAAAAUAAAAUAAAUAAUAAACAGAAGGCACAAAGG [Mat - Mod of Hog D17] (puzzle: Exclusion 1)	–	–	–	–	58.6	–
UUUUAGACAGGAUAUACAUUUUUUUAUUUAUUUAUAAUAUUACAUGAGGAUCACCCAUGUAGAAGGGUCAUUUU [My Design] (puzzle: Exclusion 2)	–	–	–	–	37.1	–
AGCUAGUCAGGAUAUUCUAUUAAUUACAUGAGGAUCACCCAUGUGAAUGGACGAGGGUGUGAAGAAGGGACUAGCG [Omei Ex5 A17] (Eterna round: R97, puzzle: Exclusion 5)	94.4	–	226	–	–	–
UACAUGAGGAUCACCCAUGUUUUGUCGUGUAUGGUAUUUAUCUAGGAUAUCAAUGUAUUAAUUUAUGAGAAGGAGAAUAUUAAU [JMF's solution 44] (Eterna round: R96, puzzle: Exclusion NG 3)	42	27.3	43.2	–	–	–

Sequence	apparent KD of MS2 coat protein (input ligand: FMN 200 uM) [nM]	apparent KD of MS2 coat protein [1] [nM]	apparent KD of MS2 coat protein (input ligand: none) [nM]	apparent KD of MS2 coat protein [2] [nM]	apparent KD of MS2 coat protein [3] [nM]	apparent KD of MS2 coat protein [4] [nM]
GCAGCGUAUGUAGGAUAUCGGUCAGUUUCUGAUCGAGAAGGACAUGAGGAUCACCCAUGUUAUUUCAUGCGUGAGCAUGGCUGC [JL ENG1 3.73] (Eterna round: R96, puzzle: Exclusion NG 1)	271	31	37.1	–	–	–
GGUCGCAGGACAGGAUAUCCAAGCGAUCUAACAUGAGGAUCACCCAUGUGCUAAGGCAGAGGGACGGAGAAGGGUCGAUCGGCC [Inqusodire] (Eterna round: R96, puzzle: Exclusion NG 2)	166	42.4	58.3	–	–	–
CUCCUCAUGGCGCCUAAACACAUGAGGAUCACCCAUGUACAGGCUUUUUGCCGUCUUAUAAUAAAACCGAGGAGGCG [Atrelele] (puzzle: Sensor v3, turn-off variant 1)	–	–	–	21	146	23.6
GUGGCACAUGAGGAUCACCCAUGUCAGGAUAUCGCGUGGUUUUUUGCGGCCGCGCGCGCGAGAAGGGACGUCUU (puzzle: Exclusion 1)	–	–	–	–	31.1	–
UUUAAUUUUUUUUUUUUACAAGCUUUUUGCUCGUCUUAUACAUGAGGAUCACCCAUGUAGGUGAGGGAUAAAUUAUC [JMF 43] (puzzle: Sensor v3, turn-off variant 2)	–	–	–	29.1	150	27.3
AGAAGUAGGAACCGAUCCUACAUGAGGAUCACCCAUGUAGCAAGACGUGCACGCGAAGCUCGUCAGACUACCAGAUG [salish99_TOv1_r3_021] (puzzle: Sensor v3, turn-off variant 1)	–	–	–	558	399	531
UUCAUGUGAGGAUAUAGUACUCCUUCUAUUAUUUUUGAGUAUUAGAAGGCACAUGAGGAUCACCCAUGUAGUAC [Ex4 - 3 - 39] (puzzle: Exclusion 4)	–	–	–	–	24.6	–
AGAAGUAGUAACCGAUCCUACAUGAGGAUCACCCAUGUAGCGGGACGUGCACGCGAAGCUCGUCAGACUACCAGAUG [salish99_TOv1_r3_024] (puzzle: Sensor v3, turn-off variant 1)	–	–	–	27.2	26.7	28.6
UCGCUCCGUGUAGGAUAUCGCCGUUCUACUCGGCGAGAAGGACAUGAGGAUCACCCAUGUAUGUUAUUAUCACGUGUGGCGCGC [Design 54] (Eterna round: R96, puzzle: Exclusion NG 1)	–	14.2	–	–	–	–
AUUUAGCAAGUCAGAUCCUACAUGAGGAUCACCCAUGUUGUUCGUCUUAUUUGAAGACAACACAAAAGUGUUGUCUU [Omei Mir OFFv1 B5] (Eterna round: R97, puzzle: Sensor, turn-off variant 1)	79.9	–	77	–	–	–
ACUCGACAUGAGGAUCACCCAUGUGAGGAUAUGGCCUGUUUGGCGUGAGCUGGCUCUGUCAGAAGGCGCGUGGG [salish99_ex1_r4_045] (Eterna round: R97, puzzle: Exclusion 1)	138	–	75.5	–	–	–
ACAUGAGGAUCACCCAUGUCCGUCUGAUCUGUCUCGGCUGUCGAGGAUAUAGCCCGGUAUCCGCGCUAGAAGGUGGGAGUCGGA [Aenatbe mod 100] (Eterna round: R96, puzzle: Exclusion NG 3)	34.9	33.4	42	–	–	–
GUAACAUGCUGGUGAUCAUACAUGAGGAUCACCCAUGUAACAAGCUUUUUGUUCGUCUUAUAAGAUUACUAGUAUGU [Stov1/10-B2] (Eterna round: R97, puzzle: Sensor, turn-off variant 1)	33	–	39.7	–	–	–
CCGUAACAUGAGGAUCACCCAUGUCAGGAUAUUCCAAAAUCGUCGAAAGACGAUAACAGAAGAAGGGACAGUGG [Fiskxlusion 5 - Jieux - Exclusion 1] (Eterna round: R97, puzzle: Exclusion 1)	104	–	111	–	–	–
AAACACUGAGGAUAUGCGUAACAACAAAGCCUCACGUGCCAACAUGAGGAUCACCCAUGUAGAAGGCAGUCCAA [Mod R3 Insanara 17 - Jieux - Exclusion 2] (Eterna round: R97, puzzle: Exclusion 2)	25.2	–	25.1	–	–	–
GCAGCUAACUGUGAUAACAGCACAUGAGGAUCACCCAUGUCUGAGGAUAUGGACUGGAUUACAGUCCAGAAGGCAGAAUGCUGC [Zipper Style 7] (Eterna round: R96, puzzle: Exclusion NG 3)	10.8	8.87	13.4	–	–	–
GAUUCACAUGACUGUCUAUACAUGAGGAUCACCCAUGUUUGUUUUUAUUUUUUUUUGCUUUUUAGUCGUCUUAUUAU [1 hard RNA] (Eterna round: R97, puzzle: Sensor, turn-off variant 1)	37.1	–	35.2	–	–	–
